Source: article PMC11714857, “PRDX5 and PRDX6 translocation and oligomerization in bull sperm: a response to cryopreservation-induced oxidative stress” (Cell Communication and Signaling : CCS, 2025)
Values joined by “and” are separate entries in the source; they are usually repeats but may differ in a detail not shown here. Equal entries are not always repeated.

Molecular target: the molecule itself
Test: non-reducing SDS-PAGE with Western blot; native protein extracts of fresh or cryopreserved bull sperm, 30 ug protein, Laemmli buffer with 1.275% SDS and without 2-mercaptoethanol, 12% gels; compared with standard reducing SDS-PAGE; oligomer bands stronger after cryopreservation

| Protein | stoichiometry N |
| --- | --- |
| peroxiredoxin 6 (enzyme, bovine (endogenous in bull sperm), UniProt O77834 1-224, looked up, peroxiredoxin 6 (PRDX6), bovine, endogenous in bull sperm; runs as a single 25 kDa band in standard SDS-PAGE; The oligomers are disulfide-linked, as they appear only in non-reducing SDS-PAGE; also called PRDX6; source: endogenous, bull sperm lysate (native protein extraction; fresh or cryopreserved sperm)) MPGGLLLGDEAPNFEANTTIGRIRFHDYLGDSWGILFSHPRDFTPVCTTELGRAAKLAPEFAKRNVKMIALSIDSVEDHLAWSKDINAYNGEEPTEKLPFPIIDDKNRDLAIQLGMLDPAEKDEKGMPVTARVVFIFGPDKKLKLSILYPATTGRNFDEILRVIISLQLTAEKRVATPVDWKNGDSVMVLPTIPEEEAKKLFPKGVFTKELPSGKKYLRYTPQP | 2 and 6 |
| peroxiredoxin 5 (enzyme, Bos taurus (endogenous in bull sperm), UniProt Q9BGI1 58-219, looked up, peroxiredoxin 5 (PRDX5) from Bos taurus, endogenous in bull sperm; runs as a single 17.5 kDa band in standard SDS-PAGE; The oligomers are disulfide-linked, as they appear only in non-reducing SDS-PAGE; also called PRDX5; source: endogenous, bull sperm lysate (native protein extraction; fresh or cryopreserved sperm)) MAPIKVGDAIPSVEVFEKEPGNKVNLAELFKGKKGVLFGLPGAFTPGCSKTHLPGFVEQADALKAKGIQVVACLTVNDVFVTEEWARAHKAEGKVRLLADPSGTFGKETDLLLDDSLLFLFGNHRLKRFSMVIEDGIVKSLNVEPDGTGLTCSLAPNILSQL | 6 |
